Assay [1] deals with T1, human guanylyl cyclase C (GCC), as used in the Octet binding assay (human, UniProt P25092 24-430, limits assumed).
T1 construct: also called STAR; GUC2C
In words: Octet BLI, 1:1 model. The protocol: Single domain heavy chain antibodies (VH) were generated that specifically target human GCC (e.g., anti-GCC binders provided in Tables 1-3). […] Binding kinetics were determined using an Octet binding assay. These were measured in real-time bio-layer interferometer based biosensor Octet (ForteBio). All the binding studies were performed in HBS-ET Octet kinetics buffer. Biosensors were always washed in Octet kinetics buffer in between different steps. A seven point, two-fold dilution series of each VH was made. The contact time for each of the association steps was 300 seconds and the dissociation step was varied between 400-600 seconds. Kinetic association (ka) and dissociation (kd) rate constants were determined by processing and fitting the data to a 1:1 binding model using ForteBio Analysis software.

The target in a further assay is T2, GCC on CT26 cells.
T2 construct: whole, on cells; That the target is GCC is inferred from this context
Nature of the assay: flow cytometry on CT26 cells, dose response. As to the method:
Binding of single domain antibodies to CT26 cells was measured using flow cytometry. CT26 cells were incubated with serially diluted VH and fluorescence was measured by flow cytometry. Anti-GCC VH antibodies were confirmed for binding to CT26 cells by a FACS dose response assay to obtain an on cell binding EC50 (nM) as shown in Table 4.

Positions count from the first letter of the chain named.

T2 sequence (Q3UWA6 whole entry): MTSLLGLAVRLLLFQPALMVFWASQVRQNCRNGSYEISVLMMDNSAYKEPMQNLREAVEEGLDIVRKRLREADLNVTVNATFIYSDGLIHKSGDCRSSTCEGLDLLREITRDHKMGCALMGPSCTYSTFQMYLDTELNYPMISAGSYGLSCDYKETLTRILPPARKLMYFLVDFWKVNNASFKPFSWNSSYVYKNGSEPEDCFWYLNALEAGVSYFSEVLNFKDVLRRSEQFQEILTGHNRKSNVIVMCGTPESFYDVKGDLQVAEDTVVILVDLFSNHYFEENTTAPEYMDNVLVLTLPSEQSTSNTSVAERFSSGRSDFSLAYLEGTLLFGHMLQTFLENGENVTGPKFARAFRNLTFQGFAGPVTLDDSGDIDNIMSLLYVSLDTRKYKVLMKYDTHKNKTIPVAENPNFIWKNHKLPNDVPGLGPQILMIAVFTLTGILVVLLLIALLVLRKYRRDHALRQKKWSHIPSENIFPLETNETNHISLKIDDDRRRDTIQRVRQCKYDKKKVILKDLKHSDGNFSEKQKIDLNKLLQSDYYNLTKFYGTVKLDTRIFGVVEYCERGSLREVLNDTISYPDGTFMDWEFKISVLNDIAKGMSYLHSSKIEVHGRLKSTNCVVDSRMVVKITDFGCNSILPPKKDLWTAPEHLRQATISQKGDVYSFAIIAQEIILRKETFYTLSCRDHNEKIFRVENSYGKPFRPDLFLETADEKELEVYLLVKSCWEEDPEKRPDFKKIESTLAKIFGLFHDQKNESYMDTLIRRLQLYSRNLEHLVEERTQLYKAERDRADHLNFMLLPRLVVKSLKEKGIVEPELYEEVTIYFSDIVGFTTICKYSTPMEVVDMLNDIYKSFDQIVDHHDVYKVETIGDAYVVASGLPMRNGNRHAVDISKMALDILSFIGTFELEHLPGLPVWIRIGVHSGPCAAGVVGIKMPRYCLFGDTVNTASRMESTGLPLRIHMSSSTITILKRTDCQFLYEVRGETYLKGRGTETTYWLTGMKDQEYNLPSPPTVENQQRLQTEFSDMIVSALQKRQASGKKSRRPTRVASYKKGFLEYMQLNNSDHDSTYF
T1 sequence (P25092 24-430 limits assumed): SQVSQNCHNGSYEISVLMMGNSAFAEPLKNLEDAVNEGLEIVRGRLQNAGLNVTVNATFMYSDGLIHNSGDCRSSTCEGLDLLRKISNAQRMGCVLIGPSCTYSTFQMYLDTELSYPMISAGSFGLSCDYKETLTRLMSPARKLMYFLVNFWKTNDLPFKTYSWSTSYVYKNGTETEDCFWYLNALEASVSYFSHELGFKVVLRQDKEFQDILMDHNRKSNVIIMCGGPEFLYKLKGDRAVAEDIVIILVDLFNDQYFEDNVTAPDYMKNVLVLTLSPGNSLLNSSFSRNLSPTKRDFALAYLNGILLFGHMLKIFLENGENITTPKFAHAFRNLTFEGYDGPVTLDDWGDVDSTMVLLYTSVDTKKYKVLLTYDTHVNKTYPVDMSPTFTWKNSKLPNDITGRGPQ

B1: V1 anti-GCC single domain VH antibody (VHH)
VHH: QVQLQESGPGLVKPSETLSLTCTVSGASISHYYWSWFRQPAGKGLEWIGRIYPSGSTSYNPSLKSRVAMSVDTPKNQFSLNLSSVTAADTAVYYCARDRSTGWSEWNSDLWGRGTLVTVSS
notes: Human heavy chain variable single domain antibody (VH only, no light chain), tested as recombinant purified VH; also called V1 VH
As to B1, in assay [1], the Kd (as a rule, the constant that tells how readily two partners part at equilibrium) amounted to 0.329 nM and the koff (commonly the rate constant with which the complex falls apart) was determined as 0.000208 s⁻¹. Moreover, the 50% effective concentration (EC50) (in general, the concentration that produces a half-maximal response) with GCC on CT26 cells is 0.72 nM.

B2: V51 anti-GCC single domain VH antibody (VHH)
VHH: EVQLVESGGGLVQPGGSLRLSCAASGFTFSRYWMTWVRQAPGKGLEWVAKIRHDGGEKYYADSVKGRFTISRDNAKNSLYLQMNSLRAEDTAVYYCTRDYNKDYWGQGTLVTVSS
notes: Human heavy chain variable single domain antibody (VH only), tested as recombinant purified VH; No tags are stated
In assay [1], B2 registered a Kd of 9.54 nM and a koff of 0.00185 s⁻¹.

B3: V36 anti-GCC single domain VH antibody (VHH)
VHH: B2 VHH with V12A, K43G, G44R, R52K, H53Y, G56S, N84D
notes: as for B2
In assay [1], B3 had a Kd of 105 nM and a koff of 0.0035 s⁻¹.

B4: V48 anti-GCC single domain VH antibody (VHH)
VHH: B2 VHH with S21T, A61P, I70V, N84D, S85N, V93M, Y104L
notes: as for B2
In assay [1], B4 gave a dissociation constant Kd of 1.38 nM and a koff of 0.000341 s⁻¹. The molecule further registered a concentration for a half-maximal effect (EC50) with GCC on CT26 cells of 1.01 nM.

B5: V5 anti-GCC single domain VH antibody (VHH)
VHH: B2 VHH with E1Q, A23T, T35S, A61V, T97A, R98T, N101T, K102R, Y104V, L110A
notes: as for B2
In assay [1], B5 showed a Kd of 7.71 nM and a koff of 0.000719 s⁻¹. In the assay with GCC on CT26 cells, this molecule returned an EC50 of 1.52 nM.

The record behind these values is patent publication US20240033359A1 (Takeda / Millennium, published 2024).
